Measured values from article PMC10397247.

Tests used:
Test in all cases: two-hybrid library CCmax;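 note: natural log of median RNA to DNA barcode read ratio; higher means stronger binding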
4H2505-AA = target: T1, 4H2505-AA; conditions: mean of both orientations
T1 chain: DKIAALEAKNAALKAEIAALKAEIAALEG

4H906-AA = target: T2, 4H906-AA; conditions: mean of both orientations
T2 chain: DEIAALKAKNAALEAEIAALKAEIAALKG

4H122-AA = target: T3, 4H122-AA; conditions: mean of both orientations
T3 chain: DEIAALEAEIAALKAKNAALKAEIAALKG

4H717-AA = target: T4, 4H717-AA; conditions: mean of both orientations
T4 chain: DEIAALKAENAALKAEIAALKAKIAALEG

4H1153-AA = target: T5, 4H1153-AA; conditions: mean of both orientations
T5 chain: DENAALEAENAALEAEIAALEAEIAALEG

4H1636-AA = target: T6, 4H1636-AA; conditions: mean of both orientations
T6 chain: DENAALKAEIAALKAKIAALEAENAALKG

4H3655-AA = target: T7, 4H3655-AA; conditions: mean of both orientations
T7 chain: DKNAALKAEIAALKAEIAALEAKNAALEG

4H3427-AA = target: T8, 4H3427-AA; conditions: mean of both orientations
T8 chain: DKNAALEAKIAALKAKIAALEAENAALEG

4H2393-AA = target: T9, 4H2393-AA; conditions: mean of both orientations
T9 chain: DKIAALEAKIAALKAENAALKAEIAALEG

4H780-AA = target: T10, 4H780-AA; conditions: mean of both orientations
T10 chain: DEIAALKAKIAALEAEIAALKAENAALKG

4H2190-AA = target: T11, 4H2190-AA; conditions: mean of both orientations
T11 chain: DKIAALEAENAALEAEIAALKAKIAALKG

4H2078-AA = target: T12, 4H2078-AA; conditions: mean of both orientations
T12 chain: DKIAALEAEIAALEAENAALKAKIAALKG

4H3627-AA = target: T13, 4H3627-AA; conditions: mean of both orientations
T13 chain: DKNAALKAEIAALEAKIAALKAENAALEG

4H342-AA = target: T14, 4H342-AA; conditions: mean of both orientations
T14 chain: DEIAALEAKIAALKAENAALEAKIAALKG

4H605-AA = target: T15, 4H605-AA; conditions: mean of both orientations
T15 chain: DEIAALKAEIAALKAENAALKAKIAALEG

4H2949-AA = target: T16, 4H2949-AA; conditions: mean of both orientations
T16 chain: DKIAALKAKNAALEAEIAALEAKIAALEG

4H1324-AA = target: T17, 4H1324-AA; conditions: mean of both orientations
T17 chain: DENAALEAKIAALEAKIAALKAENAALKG

4H317-AA = target: T18, 4H317-AA; conditions: mean of both orientations
T18 chain: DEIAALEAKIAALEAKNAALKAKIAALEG

4H993-AA = target: T19, 4H993-AA; conditions: mean of both orientations
T19 chain: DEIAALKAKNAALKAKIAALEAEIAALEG

4H2642-AA = target: T20, 4H2642-AA; conditions: mean of both orientations
T20 chain: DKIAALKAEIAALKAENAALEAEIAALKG

4H3112-AA = target: T21, 4H3112-AA; conditions: mean of both orientations
T21 chain: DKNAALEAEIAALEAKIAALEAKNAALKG

4H881-AA = target: T22, 4H881-AA; conditions: mean of both orientations
T22 chain: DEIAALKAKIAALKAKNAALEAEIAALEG

4H1867-AA = target: T23, 4H1867-AA; conditions: mean of both orientations
T23 chain: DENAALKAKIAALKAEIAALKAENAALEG

4H1552-AA = target: T24, 4H1552-AA; conditions: mean of both orientations
T24 chain: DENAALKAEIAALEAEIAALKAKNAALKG

4H2575-AA = target: T25, 4H2575-AA; conditions: mean of both orientations
T25 chain: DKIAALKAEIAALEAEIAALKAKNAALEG

4H678-AA = target: T26, 4H678-AA; conditions: mean of both orientations
T26 chain: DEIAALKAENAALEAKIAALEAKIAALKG

4H1086-AA = target: T27, 4H1086-AA
T27 chain: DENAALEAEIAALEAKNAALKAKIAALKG

4H1352-AA = target: T28, 4H1352-AA; conditions: mean of both orientations
T28 chain: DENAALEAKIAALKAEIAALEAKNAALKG

4H429-AA = target: T29, 4H429-AA; conditions: mean of both orientations
T29 chain: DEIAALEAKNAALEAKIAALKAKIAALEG

4H454-AA = target: T30, 4H454-AA; conditions: mean of both orientations
T30 chain: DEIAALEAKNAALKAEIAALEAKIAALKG

4H2837-AA = target: T31, 4H2837-AA; conditions: mean of both orientations
T31 chain: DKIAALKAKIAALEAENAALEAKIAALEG

4H2944-AA = target: T32, 4H2944-AA; conditions: mean of both orientations
T32 chain: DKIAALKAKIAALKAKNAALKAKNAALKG

4H2617-AA = target: T33, 4H2617-AA; conditions: mean of both orientations
T33 chain: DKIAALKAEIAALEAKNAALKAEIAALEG

4H234-AA = target: T34, 4H234-AA; conditions: mean of both orientations
T34 chain: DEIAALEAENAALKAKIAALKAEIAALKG

4H2729-AA = target: T35, 4H2729-AA; conditions: mean of both orientations
T35 chain: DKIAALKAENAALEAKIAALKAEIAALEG

4H3844-AA = target: T36, 4H3844-AA; conditions: mean of both orientations
T36 chain: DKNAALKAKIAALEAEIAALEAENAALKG

4H1135-AA = target: T37, 4H1135-AA; conditions: mean of both orientations
T37 chain: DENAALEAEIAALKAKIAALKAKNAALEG

4H2354-AA = target: T38, 4H2354-AA; conditions: mean of both orientations
T38 chain: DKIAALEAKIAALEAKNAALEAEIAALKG

4H2277-AA = target: T39, 4H2277-AA
T39 chain: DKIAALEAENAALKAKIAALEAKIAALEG

4H3921-AA = target: T40, 4H3921-AA; conditions: mean of both orientations
T40 chain: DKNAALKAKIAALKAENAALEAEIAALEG

4H566-AA = target: T41, 4H566-AA; conditions: mean of both orientations
T41 chain: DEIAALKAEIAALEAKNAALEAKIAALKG

4H794-AA = target: T42, 4H794-AA; conditions: mean of both orientations
T42 chain: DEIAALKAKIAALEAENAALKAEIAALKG

4H3343-AA = target: T43, 4H3343-AA; conditions: mean of both orientations
T43 chain: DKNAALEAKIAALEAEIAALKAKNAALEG

4H335-AA = target: T44, 4H335-AA; conditions: mean of both orientations
T44 chain: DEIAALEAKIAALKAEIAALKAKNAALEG

4H2165-AA = target: T45, 4H2165-AA; conditions: mean of both orientations
T45 chain: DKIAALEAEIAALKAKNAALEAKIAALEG

4H2466-AA = target: T46, 4H2466-AA; conditions: mean of both orientations
T46 chain: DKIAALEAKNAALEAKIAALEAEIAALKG

4H2754-AA = target: T47, 4H2754-AA; conditions: mean of both orientations
T47 chain: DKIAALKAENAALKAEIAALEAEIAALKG

## DENAALEAEIAALEAKNAALKAKIAALKG [4H1086-AA]
4H2505-AA
  interaction score: -1.28
4H906-AA
  interaction score: -1.8
4H122-AA
  interaction score: -0.74
4H717-AA
  interaction score: -1.78
4H1153-AA
  interaction score: -0.756
4H1636-AA
  interaction score: -1.62
4H3655-AA
  interaction score: -0.935
4H3427-AA
  interaction score: -0.568
4H2393-AA
  interaction score: 1.89
4H780-AA
  interaction score: -1.37
4H2190-AA
  interaction score: 1.78
4H2078-AA
  interaction score: -1.42
4H3627-AA
  interaction score: -0.932
4H342-AA
  interaction score: 1.88
4H605-AA
  interaction score: -0.771
4H2949-AA
  interaction score: 0.739
4H1324-AA
  interaction score: -0.552
4H317-AA
  interaction score: -0.992
4H993-AA
  interaction score: -0.479
4H2642-AA
  interaction score: 1.79
4H3112-AA
  interaction score: -1.57
4H881-AA
  interaction score: 1.89
4H1867-AA
  interaction score: -1.02
4H1552-AA
  interaction score: -0.495
4H2575-AA
  interaction score: 0.522
4H678-AA
  interaction score: -0.364
4H1086-AA
  interaction score: -1.1
4H1352-AA
  interaction score: -0.965
4H429-AA
  interaction score: 0.612
4H454-AA
  interaction score: -0.949
4H2837-AA
  interaction score: 2.25
4H2944-AA
  interaction score: -1.29
4H2617-AA
  interaction score: 0.841
4H234-AA
  interaction score: -1.17
4H2729-AA
  interaction score: 1.34
4H3844-AA
  interaction score: -0.082
4H1135-AA
  interaction score: -0.938
4H2354-AA
  interaction score: -0.946
4H2277-AA
  interaction score: -2.16
4H3921-AA
  interaction score: 2.16
4H566-AA
  interaction score: -0.902
4H794-AA
  interaction score: -0.327
4H3343-AA
  interaction score: -1.72
4H335-AA
  interaction score: -1.27
4H2165-AA
  interaction score: -1.24
4H2466-AA
  interaction score: -1.65
4H2754-AA
  interaction score: 0.514
